Measured values taken from PMC4652344.

Target: sulfonylurea receptor 1 (Sur1) (mouse (endogenous in lumbar spinal cord))
Assay: FRET or BRET; immunoFRET on 7 um cryosections of lumbar spinal cord of pid-30 WT/EAE mice; custom anti-Sur1 and anti-Trpm4 primary antibodies, secondary antibodies conjugated with Cy3 or Cy5; control: omission of one of the two primary antibodies

Chain of sulfonylurea receptor 1 (Sur1) (mouse (endogenous in lumbar spinal cord)) (B2RUS7 entry or part of it): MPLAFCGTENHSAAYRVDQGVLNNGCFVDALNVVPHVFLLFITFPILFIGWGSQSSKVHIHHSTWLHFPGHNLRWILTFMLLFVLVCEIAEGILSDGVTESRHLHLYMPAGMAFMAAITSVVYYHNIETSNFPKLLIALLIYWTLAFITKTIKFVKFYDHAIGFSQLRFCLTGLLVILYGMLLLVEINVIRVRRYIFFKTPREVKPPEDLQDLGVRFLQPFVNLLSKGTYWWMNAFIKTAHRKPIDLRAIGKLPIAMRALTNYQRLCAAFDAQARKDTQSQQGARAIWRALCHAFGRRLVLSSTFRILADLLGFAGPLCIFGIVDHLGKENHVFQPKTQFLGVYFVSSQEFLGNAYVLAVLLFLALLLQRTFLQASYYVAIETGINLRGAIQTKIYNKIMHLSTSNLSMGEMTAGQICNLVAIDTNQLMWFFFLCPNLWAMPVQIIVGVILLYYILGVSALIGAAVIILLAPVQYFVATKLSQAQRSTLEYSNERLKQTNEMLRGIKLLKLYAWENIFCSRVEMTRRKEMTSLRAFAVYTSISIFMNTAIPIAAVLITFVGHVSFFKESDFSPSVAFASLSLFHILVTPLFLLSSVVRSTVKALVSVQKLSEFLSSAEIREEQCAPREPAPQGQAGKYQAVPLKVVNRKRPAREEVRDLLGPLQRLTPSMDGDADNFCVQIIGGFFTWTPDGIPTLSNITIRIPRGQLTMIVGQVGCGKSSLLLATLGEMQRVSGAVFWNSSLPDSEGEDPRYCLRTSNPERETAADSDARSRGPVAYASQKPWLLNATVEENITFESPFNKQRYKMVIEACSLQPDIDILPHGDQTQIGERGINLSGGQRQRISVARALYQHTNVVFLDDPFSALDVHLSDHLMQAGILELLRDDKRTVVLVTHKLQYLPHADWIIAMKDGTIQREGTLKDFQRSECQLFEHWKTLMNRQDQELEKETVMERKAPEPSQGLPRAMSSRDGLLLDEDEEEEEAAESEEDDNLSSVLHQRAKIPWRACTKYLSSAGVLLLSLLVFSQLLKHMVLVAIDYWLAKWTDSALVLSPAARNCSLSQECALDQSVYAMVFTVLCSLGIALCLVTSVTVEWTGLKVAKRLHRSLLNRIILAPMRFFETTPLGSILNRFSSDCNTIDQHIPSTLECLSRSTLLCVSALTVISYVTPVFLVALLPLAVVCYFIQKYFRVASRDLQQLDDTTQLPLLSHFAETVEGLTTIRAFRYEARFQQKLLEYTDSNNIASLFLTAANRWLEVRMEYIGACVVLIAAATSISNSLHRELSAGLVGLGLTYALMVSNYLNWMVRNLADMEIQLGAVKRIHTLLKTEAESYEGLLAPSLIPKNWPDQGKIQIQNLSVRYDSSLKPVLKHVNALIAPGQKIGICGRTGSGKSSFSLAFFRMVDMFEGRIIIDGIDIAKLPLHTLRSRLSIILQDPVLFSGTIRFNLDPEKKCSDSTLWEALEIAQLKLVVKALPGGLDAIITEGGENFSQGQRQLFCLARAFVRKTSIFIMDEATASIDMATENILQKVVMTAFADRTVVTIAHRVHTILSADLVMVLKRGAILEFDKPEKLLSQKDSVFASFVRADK

transient receptor potential melastatin 4 (Trpm4) (from UniProt Q7TN37 1-1213) (natural protein)
FRET efficiency: 10 to 14%
